According to US20190211081A1 (Chugai, published 2019):

Assays:
[1] = target: T1, soluble human FcRn (complex of FcRn and beta2-microglobulin) (human, UniProt P55899 24-290; P61769 21-119); test: Biacore 3000, antibody captured, human FcRn as analyte, pH 6.0
T1 construct: Expressed constructs contain the signal regions (FcRn Met1-Leu290; beta2-microglobulin Met1-Met119); Secreted from HEK293H cells and purified; also called hFcRn
Experimental: (§1) The binding to human FcRn was assessed using Biacore 3000. An antibody was bound to Protein L or rabbit anti-human IgG Kappa chain antibody immobilized onto a sensor chip, human FcRn was added as an analyte for interaction with the antibody, and the affinity (KD) was calculated from the amount of bound human FcRn. Specifically, Protein L or rabbit anti-human IgG Kappa chain antibody was immobilized onto sensor chip CM5 (BIACORE) by the amine coupling method using 50 mM Na-phosphate buffer (pH 6.0) containing 150 mM NaCl as the running buffer. […] Human FcRn was then injected and the binding of the human FcRn to antibody was assessed.
(§2) The obtained sensorgram was used to calculate the amount of hFcRn bound to the antibody immediately before the end of human FcRn injection. The affinity of the antibody for human FcRn was calculated by fitting with the steady state affinity method.

[2] = target: T1, soluble human FcRn (complex of FcRn and …); test: Biacore T100, human FcRn immobilized on CM4 chip, antibody as analyte (divalent avidity), pH 6.0, 25 C, KD from ka and kd
Experimental: Then, the present inventors assessed in this Example the binding of IgG to FcRn with divalent avidity by immobilizing human FcRn onto a sensor chip and injecting IgG as an analyte to more closely mimic the in vivo case.
First, about 2,000 RU of human FcRn was immobilized onto sensor chip CM4 (GE Healthcare) by the amino coupling method. Reagents used in the amino coupling were: ethanol amine (GE Healthcare), 50 mM NaOH solution (GE Healthcare), NHS (GE Healthcare), EDC (GE Healthcare). HBS-EP+ solution (10×HBS-EP+ solution (GE Healthcare) was used after dilution) was used as the mobile phase. Then, antibodies were each injected as an analyte into the sensor chip immobilized with human FcRn for three minutes to observe the binding of FcRn to the antibodies. After this observation, the mobile phase was injected for five minutes to assess the dissociation of each antibody variants from FcRn. All measurements were carried out at 25° C. The mobile phase used was 10 mM Cit (pH 6.0)/150 mM NaCl/0.05% Tween20.
From the obtained sensorgrams, the association rate constant ka (1/Ms) and dissociation rate constant kd (1/s) were calculated for the three minutes of binding phase using Biacore T100 Evaluation Software (GE Healthcare). The dissociation constant KD (M) was determined based on these values.

[3] = target: T1, soluble human FcRn (complex of FcRn and …); test: Biacore 3000, antibody captured, human FcRn as analyte, pH 6.0, steady state affinity
Experimental: as §1
The affinity was computed using BIAevaluation Software. The obtained sensorgram was used to calculate the amount of hFcRn bound to the antibody immediately before the end of human FcRn injection. The affinity of the antibody for human FcRn was calculated by fitting with the steady state affinity method.
The resulting antibodies were assessed for their human FcRn-binding activity by the method described above.

[4] = target: T1, soluble human FcRn (complex of FcRn and …); test: Biacore 3000, antibody captured on Protein L or rabbit anti-human kappa antibody, human FcRn as analyte, pH 6.0, steady state affinity
Experimental: as §1, §2

| fold increase of binding compared to IL6R H0-IgG1/L0-k0 [1] [times] | Kd [2] [nM] | Kd [3] [nM] | Kd [4] [nM] | Binder |
| --- | --- | --- | --- | --- |
| ~1.4 | 3.85 | 1030 | 1030 | IL6R H0-M58/L0-k0 (antibody, IgG2, L-chain constant region k0; also called M58-k0 (anti-IL-6 receptor antibody)) heavy: QVQLQESGPGLVRPSQTLSLTCTVSGYSITSDHAWSWVRQPPGRGLEWIGYISYSGITTYNPSLKSRVTMLRDTSKNQFSLRLSSVTAADTAVYYCARSLARTTAMDYWGQGSLVTVSSASTKGPSVFPLAPSSKSTSGGTAALGCLVKDYFPEPVTVSWNSGALTSGVHTFPAVLQSSGLYSLSSVVTVPSSNFGTQTYTCNVDHKPSNTKVDKTVERKSCVECPPCPAPPVAGPSVFLFPPKPKDTLMISRTPEVTCVVVDVSQEDPEVQFNWYVDGVEVHNAKTKPREEQFNSTFRVVSVLTVVHQDWLNGKEYKCKVSNKGLPAPIEKTISKTKGQPREPQVYTLPPSQEEMTKNQVSLTCLVKGFYPSDIAVEWESNGQPENNYKTTPPMLDSDGSFFLYSKLTVDKSRWQEGNVFSCSVMHEALHNHYTQKSLSLSP light: not shown |
|  | 3.26 |  |  | IL6R H0-M66/L0-k3 (antibody, also called M66-k3) heavy: QVQLQESGPGLVRPSQTLSLTCTVSGYSITSDHAWSWVRQPPGRGLEWIGYISYSGITTYNPSLKSRVTMLRDTSKNQFSLRLSSVTAADTAVYYCARSLARTTAMDYWGQGSLVTVSSASTKGPSVFPLAPSSKSTSGGTAALGCLVKDYFPEPVTVSWNSGALTSGVHTFPAVLQSSGLYSLSSVVTVPSSNFGTQTYTCNVDHKPSNTKVDKTVERKCSVECPPCPAPPVAGPSVFLFPPKPKDTLMISRTPEVTCVVVDVSQEDPEVQFNWYVDGVEVHNAKTKPREEQFNSTFRVVSVLTVVHQDWLNGKEYKCKVSNKGLPAPIEKTISKTKGQPREPQVYTLPPSQEEMTKNQVSLTCLVKGFYPSDIAVEWESNGQPENNYKTTPPMLDSDGSFFLYSKLTVDKSRWQEGNVFSCSVMHEALHNHYTQKSLSLSP light: not shown |
|  | 3.54 |  |  | IL6R H0-M66/L0-k0 (antibody, L-chain constant region k0; also called M66-k0) heavy: QVQLQESGPGLVRPSQTLSLTCTVSGYSITSDHAWSWVRQPPGRGLEWIGYISYSGITTYNPSLKSRVTMLRDTSKNQFSLRLSSVTAADTAVYYCARSLARTTAMDYWGQGSLVTVSSASTKGPSVFPLAPSSKSTSGGTAALGCLVKDYFPEPVTVSWNSGALTSGVHTFPAVLQSSGLYSLSSVVTVPSSNFGTQTYTCNVDHKPSNTKVDKTVERKCSVECPPCPAPPVAGPSVFLFPPKPKDTLMISRTPEVTCVVVDVSQEDPEVQFNWYVDGVEVHNAKTKPREEQFNSTFRVVSVLTVVHQDWLNGKEYKCKVSNKGLPAPIEKTISKTKGQPREPQVYTLPPSQEEMTKNQVSLTCLVKGFYPSDIAVEWESNGQPENNYKTTPPMLDSDGSFFLYSKLTVDKSRWQEGNVFSCSVMHEALHNHYTQKSLSLSP light: not shown |
|  |  | 1070 |  | IL31R H0-IgG1/L0-k0 (antibody, also called anti-IL-31 receptor antibody, IgG1-k0) heavy: not shown light: DIQMTQSPSSLSASVGDRVTITCRTSENIYSFLAWYQQKPGKAPKLLIYNAKTLAKGVPSRFSGSGSGTDFTLTISSLQPEDFATYYCQHHYESPLTFGGGTKVEIKRTVAAPSVFIFPPSDEQLKSGTASVVCLLNNFYPREAKVQWKVDNALQSGNSQESVTEQDSKDSTYSLSSTLTLSKADYEKHKVYACEVTHQGLSSPVTKSFNRGEC |
|  |  | 910 |  | IL31R H0-M58/L0-k0 (antibody, also called anti-IL-31 receptor antibody, M58-k0) heavy: QVQLVQSGAEVKKPGASVKVSCKASGYTFTGYIMNWVRQAPGQGLEWMGLINPYNGGTSYNQKFKGRVTITADESTSTAYMELSSLRSEDTAVYYCARDGYDDGPYTMDYWGQGTLVTVSSASTKGPSVFPLAPSSKSTSGGTAALGCLVKDYFPEPVTVSWNSGALTSGVHTFPAVLQSSGLYSLSSVVTVPSSNFGTQTYTCNVDHKPSNTKVDKTVERKSCVECPPCPAPPVAGPSVFLFPPKPKDTLMISRTPEVTCVVVDVSQEDPEVQFNWYVDGVEVHNAKTKPREEQFNSTFRVVSVLTVVHQDWLNGKEYKCKVSNKGLPAPIEKTISKTKGQPREPQVYTLPPSQEEMTKNQVSLTCLVKGFYPSDIAVEWESNGQPENNYKTTPPMLDSDGSFFLYSKLTVDKSRWQEGNVFSCSVMHEALHNHYTQKSLSLSP light: DIQMTQSPSSLSASVGDRVTITCRTSENIYSFLAWYQQKPGKAPKLLIYNAKTLAKGVPSRFSGSGSGTDFTLTISSLQPEDFATYYCQHHYESPLTFGGGTKVEIKRTVAAPSVFIFPPSDEQLKSGTASVVCLLNNFYPREAKVQWKVDNALQSGNSQESVTEQDSKDSTYSLSSTLTLSKADYEKHKVYACEVTHQGLSSPVTKSFNRGEC |
